These results are taken from US20260216242A1 (ALMAC DISCOVERY, published 2026).

T1: Human ALPP (leucine zipper) (human)
T1 construct: Soluble human ALPP fused to a disulphide stabilised leucine zipper and a His tag; The whole entry is the construct; also called hALPP; PLAP
T1 chain: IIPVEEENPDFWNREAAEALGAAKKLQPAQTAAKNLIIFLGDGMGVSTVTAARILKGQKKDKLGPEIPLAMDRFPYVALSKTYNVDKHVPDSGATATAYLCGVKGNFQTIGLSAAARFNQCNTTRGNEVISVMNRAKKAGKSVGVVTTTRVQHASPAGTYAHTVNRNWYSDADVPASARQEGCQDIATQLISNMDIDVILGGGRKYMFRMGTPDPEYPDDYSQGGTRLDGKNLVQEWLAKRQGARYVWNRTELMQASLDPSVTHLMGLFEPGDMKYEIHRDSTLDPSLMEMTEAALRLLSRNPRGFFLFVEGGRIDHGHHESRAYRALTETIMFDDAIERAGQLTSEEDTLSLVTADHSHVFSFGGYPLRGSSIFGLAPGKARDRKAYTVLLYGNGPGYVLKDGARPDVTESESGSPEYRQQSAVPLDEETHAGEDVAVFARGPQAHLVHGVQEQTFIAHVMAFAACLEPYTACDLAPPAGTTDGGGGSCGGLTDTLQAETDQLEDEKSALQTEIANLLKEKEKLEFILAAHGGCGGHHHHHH

B1: D10 A06-hFc (S239C + S442C), mixed linkers (D10 - [G4S]1, A06 - [G4S]3) (Fc fusion)
chain 1: QVQLVESGGGLVQPGGSLRLSCAASGSIFSVNTMGWYRQAPGKQRDLVAVATSGGTIHYADSVKGRFTISRDNAKNTVYLQMNSLKPEDTAVYYCNLVVPYGMIAGDHDYWGQGTKVTVSSGGGGSEPKSSDKTHTCPPCPAPELLGGPCVFLFPPKPKDTLMISRTPEVTCVVVDVSHEDPEVKFNWYVDGVEVHNAKTKPREEQYNSTYRVVSVLTVLHQDWLNGKEYKCKVSNKALPAPIEKTISKAKGQPREPQVYTLPPSRDELTKNQVSLYCLVKGFYPSDIAVEWESNGQPENNYKTTPPVLDSDGSFFLYSKLTVDKSRWQQGNVFSCSVMHEALHNHYTQKSLCLSPGK
chain 2: QVHLVESGGGLVQAGGSLRLSCAASGRTFLSMGWFRQAPGKEREFVAAISWTGGSTGYADSVKGRFTISRESDKETMYLQMNSLKPEDTAVYYCAARGDVYYGGDDATRYKYWGQGTQVTVSSGGGGSGGGGSGGGGSEPKSSDKTHTCPPCPAPELLGGPCVFLFPPKPKDTLMISRTPEVTCVVVDVSHEDPEVKFNWYVDGVEVHNAKTKPREEQYNSTYRVVSVLTVLHQDWLNGKEYKCKVSNKALPAPIEKTISKAKGQPREPQVYTLPPSRDELTKNQVSLTCLVKGFYPSDIAVEWESNGQPENNYKTTPPVLDSDGSFFLTSKLTVDKSRWQQGNVFSCSVMHEALHNHYTQKSLCLSPGK
notes: Biparatopic heterodimer; also called #702
B2: D10 E06-hFc (S239C + S442C), mixed linkers (D10 - [G4S]1, E06 - [G4S]3) (Fc fusion)
chain 1: QVQLVESGGGLVQPGGSLRLSCAASGSIFSVNTMGWYRQAPGKQRDLVAVATSGGTIHYADSVKGRFTISRDNAKNTVYLQMNSLKPEDTAVYYCNLVVPYGMIAGDHDYWGQGTKVTVSSGGGGSEPKSSDKTHTCPPCPAPELLGGPCVFLFPPKPKDTLMISRTPEVTCVVVDVSHEDPEVKFNWYVDGVEVHNAKTKPREEQYNSTYRVVSVLTVLHQDWLNGKEYKCKVSNKALPAPIEKTISKAKGQPREPQVYTLPPSRDELTKNQVSLYCLVKGFYPSDIAVEWESNGQPENNYKTTPPVLDSDGSFFLYSKLTVDKSRWQQGNVFSCSVMHEALHNHYTQKSLCLSPGK
chain 2: QVHLVESGGGLVQAGGSLRLSCAASRRSFSEYAMGWFRQAPGKEREFVAAIGWSGVIEYADSVKGRFTISRDNAKDTVYLQMNSLKPEDTAVYYCAAGLGIRVVSQTPAYWGQGTQVTVSSGGGGSGGGGSGGGGSEPKSSDKTHTCPPCPAPELLGGPCVFLFPPKPKDTLMISRTPEVTCVVVDVSHEDPEVKFNWYVDGVEVHNAKTKPREEQYNSTYRVVSVLTVLHQDWLNGKEYKCKVSNKALPAPIEKTISKAKGQPREPQVYTLPPSRDELTKNQVSLTCLVKGFYPSDIAVEWESNGQPENNYKTTPPVLDSDGSFFLTSKLTVDKSRWQQGNVFSCSVMHEALHNHYTQKSLCLSPGK
notes: Biparatopic heterodimer; also called #703
B3: D10 E10-hFc (S239C + S442C), mixed linkers (D10 - [G4S]1, E10 - [G4S]3) (Fc fusion)
chain 1: QVQLVESGGGLVQPGGSLRLSCAASGSIFSVNTMGWYRQAPGKQRDLVAVATSGGTIHYADSVKGRFTISRDNAKNTVYLQMNSLKPEDTAVYYCNLVVPYGMIAGDHDYWGQGTKVTVSSGGGGSEPKSSDKTHTCPPCPAPELLGGPCVFLFPPKPKDTLMISRTPEVTCVVVDVSHEDPEVKFNWYVDGVEVHNAKTKPREEQYNSTYRVVSVLTVLHQDWLNGKEYKCKVSNKALPAPIEKTISKAKGQPREPQVYTLPPSRDELTKNQVSLYCLVKGFYPSDIAVEWESNGQPENNYKTTPPVLDSDGSFFLYSKLTVDKSRWQQGNVFSCSVMHEALHNHYTQKSLCLSPGK
chain 2: QVQLVESGGGLVQAGGSLRLSCAVSGRALSDYNIGWFRQAPGKEREFVARKTWDGSSTRYDDSVKGRFTVSIEDAKNTAYLQMSSLKTEDTAVYYCAAGRYSRARGWEYDYWGQGTQVTVSSGGGGSGGGGSGGGGSEPKSSDKTHTCPPCPAPELLGGPCVFLFPPKPKDTLMISRTPEVTCVVVDVSHEDPEVKFNWYVDGVEVHNAKTKPREEQYNSTYRVVSVLTVLHQDWLNGKEYKCKVSNKALPAPIEKTISKAKGQPREPQVYTLPPSRDELTKNQVSLTCLVKGFYPSDIAVEWESNGQPENNYKTTPPVLDSDGSFFLTSKLTVDKSRWQQGNVFSCSVMHEALHNHYTQKSLCLSPGK
notes: Biparatopic heterodimer; also called #704
B4: A06 E06-hFc (S239C + S442C), mixed linkers (A06 - [G4S]1, E06 - [G4S]3) (Fc fusion)
chain 1: QVHLVESGGGLVQAGGSLRLSCAASGRTFLSMGWFRQAPGKEREFVAAISWTGGSTGYADSVKGRFTISRESDKETMYLQMNSLKPEDTAVYYCAARGDVYYGGDDATRYKYWGQGTQVTVSSGGGGSEPKSSDKTHTCPPCPAPELLGGPCVFLFPPKPKDTLMISRTPEVTCVVVDVSHEDPEVKFNWYVDGVEVHNAKTKPREEQYNSTYRVVSVLTVLHQDWLNGKEYKCKVSNKALPAPIEKTISKAKGQPREPQVYTLPPSRDELTKNQVSLYCLVKGFYPSDIAVEWESNGQPENNYKTTPPVLDSDGSFFLYSKLTVDKSRWQQGNVFSCSVMHEALHNHYTQKSLCLSPGK
chain 2: QVHLVESGGGLVQAGGSLRLSCAASRRSFSEYAMGWFRQAPGKEREFVAAIGWSGVIEYADSVKGRFTISRDNAKDTVYLQMNSLKPEDTAVYYCAAGLGIRVVSQTPAYWGQGTQVTVSSGGGGSGGGGSGGGGSEPKSSDKTHTCPPCPAPELLGGPCVFLFPPKPKDTLMISRTPEVTCVVVDVSHEDPEVKFNWYVDGVEVHNAKTKPREEQYNSTYRVVSVLTVLHQDWLNGKEYKCKVSNKALPAPIEKTISKAKGQPREPQVYTLPPSRDELTKNQVSLTCLVKGFYPSDIAVEWESNGQPENNYKTTPPVLDSDGSFFLTSKLTVDKSRWQQGNVFSCSVMHEALHNHYTQKSLCLSPGK
notes: Biparatopic heterodimer; also called #706
B5: A06 E10-hFc (S239C + S442C), mixed linkers (A06 - [G4S]1, E10 - [G4S]3) (Fc fusion)
chain 1: QVHLVESGGGLVQAGGSLRLSCAASGRTFLSMGWFRQAPGKEREFVAAISWTGGSTGYADSVKGRFTISRESDKETMYLQMNSLKPEDTAVYYCAARGDVYYGGDDATRYKYWGQGTQVTVSSGGGGSEPKSSDKTHTCPPCPAPELLGGPCVFLFPPKPKDTLMISRTPEVTCVVVDVSHEDPEVKFNWYVDGVEVHNAKTKPREEQYNSTYRVVSVLTVLHQDWLNGKEYKCKVSNKALPAPIEKTISKAKGQPREPQVYTLPPSRDELTKNQVSLYCLVKGFYPSDIAVEWESNGQPENNYKTTPPVLDSDGSFFLYSKLTVDKSRWQQGNVFSCSVMHEALHNHYTQKSLCLSPGK
chain 2: QVQLVESGGGLVQAGGSLRLSCAVSGRALSDYNIGWFRQAPGKEREFVARKTWDGSSTRYDDSVKGRFTVSIEDAKNTAYLQMSSLKTEDTAVYYCAAGRYSRARGWEYDYWGQGTQVTVSSGGGGSGGGGSGGGGSEPKSSDKTHTCPPCPAPELLGGPCVFLFPPKPKDTLMISRTPEVTCVVVDVSHEDPEVKFNWYVDGVEVHNAKTKPREEQYNSTYRVVSVLTVLHQDWLNGKEYKCKVSNKALPAPIEKTISKAKGQPREPQVYTLPPSRDELTKNQVSLTCLVKGFYPSDIAVEWESNGQPENNYKTTPPVLDSDGSFFLTSKLTVDKSRWQQGNVFSCSVMHEALHNHYTQKSLCLSPGK
notes: Biparatopic heterodimer; also called #707
B6: A06 F05-hFc (S239C + S442C), mixed linkers (A06 - [G4S]1, F05 - [G4S]3) (Fc fusion)
chain 1: QVHLVESGGGLVQAGGSLRLSCAASGRTFLSMGWFRQAPGKEREFVAAISWTGGSTGYADSVKGRFTISRESDKETMYLQMNSLKPEDTAVYYCAARGDVYYGGDDATRYKYWGQGTQVTVSSGGGGSEPKSSDKTHTCPPCPAPELLGGPCVFLFPPKPKDTLMISRTPEVTCVVVDVSHEDPEVKFNWYVDGVEVHNAKTKPREEQYNSTYRVVSVLTVLHQDWLNGKEYKCKVSNKALPAPIEKTISKAKGQPREPQVYTLPPSRDELTKNQVSLYCLVKGFYPSDIAVEWESNGQPENNYKTTPPVLDSDGSFFLYSKLTVDKSRWQQGNVFSCSVMHEALHNHYTQKSLCLSPGK
chain 2: QVQLVESGGGLVQAGGSLRLSCAASGRAFGDYNIGWFRQAPGKEREFVARRTWDGSSTRYDDSVKGRFTVSIDNAKNTAYLQMNSLKTEDTAVYYCAAGRYSRVRGWEYDYWGQGTQVTVSSGGGGSGGGGSGGGGSEPKSSDKTHTCPPCPAPELLGGPCVFLFPPKPKDTLMISRTPEVTCVVVDVSHEDPEVKFNWYVDGVEVHNAKTKPREEQYNSTYRVVSVLTVLHQDWLNGKEYKCKVSNKALPAPIEKTISKAKGQPREPQVYTLPPSRDELTKNQVSLTCLVKGFYPSDIAVEWESNGQPENNYKTTPPVLDSDGSFFLTSKLTVDKSRWQQGNVFSCSVMHEALHNHYTQKSLCLSPGK
notes: Biparatopic heterodimer; also called #708

This experiment concerns the target T1, Human ALPP (leucine zipper). Kind of experiment: BLI, KD app (antigen immobilised on AR2G sensor). As for the experimental part: Binding kinetics were determined using the Biolayer Interferometry (BLI) Octet K2 or R4 system (Sartorius). […] For KD apparent measurements, the ALPP proteins were immobilised in sodium acetate pH5 buffer to AR2G sensors using amine coupling. To measure 1:1 interactions, AHC biosensors were used to immobilise Fc-fused proteins. All assays were conducted in HBS-EP with a plate temperature of 25° C. Ka (M⁻¹s⁻¹), Kd (s⁻¹) and KD (nM) values were determined using Octet Data Analysis High Throughput software (Sartorius) for Biolayer Interferometry.
(In general: Biolayer interferometry detects binding as a change in optical thickness at a sensor tip.)
A word on the kon: it is the second-order rate constant of association. A low value points to slow association. In turn, B1 gave a Kd of less than 0.01 nM and an on-rate (kon) of 343000 M⁻¹ s⁻¹.

As for B2, the Kd stood at 0.11 nM and the kon is 465000 M⁻¹ s⁻¹.

For B3, the Kd was less than 0.01 nM and the on-rate (kon) came to 385000 M⁻¹ s⁻¹.

The molecule B4 came in with a Kd of less than 0.01 nM and an association rate constant (kon) of 429000 M⁻¹ s⁻¹.

Molecule B5 returned a kon of 421000 M⁻¹ s⁻¹.

B6: the kon turned out to be 426000 M⁻¹ s⁻¹.
